# Results taken from US20250361305A1 (ORIONIS BIOSCIENCES, published 2025).
# Residue numbers refer to the chain shown, from its start.
# B1: 2PD-16 (VHH)
# VHH: QVQLQESGGGLVQAGGSLRLSCAASGGFNRVSYMGWYRQAPGTKRELVASVTSGGEITIADSVKGRFTVSRDNSKNTLYLQMNGLKPEDGATYWCNADIWVSDARMYNYWGQGTQVTVSS
# notes: PD-1 VHH
# B2: 2PD71 (VHH)
# VHH: B1 VHH with A14T, G16E, T43S, I59V, S74N
# notes: PD-1 VHH
# B3: 2PD8 (VHH)
# VHH: QVQLQESGGGSVQAGDSLRLSCTASGRTFSSLGMGWFRQAPGKEREFVSAIAWNGASTYYTESVKGRFTISRDDAKNTVYLQMNSLKPTDTAVYFCAASGLGSVVVTANEYDYWGQGTQVTVSS
# notes: PD-1 VHH
# B4: 2PD27 (VHH)
# VHH: B3 VHH with A14P, D16K, T23A
# notes: PD-1 VHH
# B5: 2PD-12 (VHH)
# VHH: QVQLQESGGGLVQAGGSLRLSCAVSGFILDYYGIGWFRQAPGKEREAVSCISSSDGSTYYADSVKGRFTISRDNALNTLYLQMNSLKPEDTAVYHCATATLCDGGIWGYWGQGTQVTVSS
# notes: PD-1 VHH
# B6: 3PD82 (VHH)
# VHH: B5 VHH with L11S, A14P, H95Y
# notes: PD-1 VHH
# B7: 3PD55 (VHH)
# VHH: B5 VHH with V12A, A23E, V24G, F27L, I28S, Y32D, I34V, D73G, H95Y
# notes: PD-1 VHH
# B8: 2PD82 (VHH)
# VHH: QVQLQESGGGLVQPGGSLRLSCTTSGFAFGSYDMGWVRQAPGKGPEWVSGINSGGRITDYADSVTGRFTISRDNAKNTLYLQMNSLKPEDTAVYYCAQGDRSSWHYYGMDYWGKGTQVTVSS
# notes: PD-1 VHH
# B9: 2PD23 (VHH)
# VHH: QVQLQESGGGLVQPGGSLRLSCAASGFSMDYYAIAWFRQAPGKEREEISCITGSDFMVDTYYVASVKGRFTISRDNAENTAYLQMNNLKPEDTGVYFCAVRSTANTLCPSHYSVMDYWGKGTQVTVSS
# notes: PD-1 VHH
# B10: 2PD90 (VHH)
# VHH: B9 VHH with A23S, M29V, E78K, N87S, V114I
# notes: PD-1 VHH
# B11: 2PD-106 (VHH)
# VHH: B9 VHH with A23S, E78K, Y82H, N87S
# notes: PD-1 VHH
# B12: 2PD26 (VHH)
# VHH: B9 VHH with P14A
# notes: PD-1 VHH
# B13: 2PD-152 (VHH)
# VHH: QVQLQESGGGLVQTGESLRLSCAASGIIKSINFMGWYRQPPGTKRELVASTTSDGRTTVADSVKGRFTISRDNAKNTIYLEMSSLKPEDTATYWCNADIWLPSDRMYNYWGQGTQVTVSS
# notes: PD-1 VHH
# Biological target: T1, PD-1 antigen (ELISA of Example 2) (human, UniProt Q15116 25-167, limits assumed)
# Experiment: ELISA, signal on PD-1 antigen over control
# T1 sequence (Q15116 25-167 limits assumed): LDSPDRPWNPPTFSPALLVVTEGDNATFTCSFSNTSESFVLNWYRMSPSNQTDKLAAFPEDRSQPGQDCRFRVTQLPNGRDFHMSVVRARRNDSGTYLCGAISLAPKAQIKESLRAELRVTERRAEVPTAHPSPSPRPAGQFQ
row,A/control,Binder
1,3.84,B1
2,3.59,B2
3,3.03,B3
4,3.45,B4
5,21.5,B5
6,45.1,B6
7,40.4,B7
8,4.38,B8
9,4.56,B9
10,5.23,B10
11,6.9,B11
12,4.2,B12
13,6.38,B13

# Biological target: T1, PD-1 antigen (ELISA of Example 2)
# Experiment: ELISA, signal on PD-1 antigen; note: test concentration or dose not given here
row,ELISA A,Binder
1,1.83,B1
2,2.51,B2
3,0.763,B3
4,1.14,B4
5,3.81,B5
6,4,B6
7,3.58,B7
8,2.97,B8
9,0.94,B9
10,1.34,B10
11,1.46,B11
12,0.718,B12
13,2.31,B13
